B1: HAL 7-12 (antibody, human IgG1, lambda, V domains shown)
VH: QLQLQESGGGLVQPGGSLRLSCAASGFTFSSYAMSWVRQAPGKGLEWVSAISGSGGSTYYADSVEGRFTISRDNSKNTLYLQMNSLRAEDTAVYYCAKERLEEPGFFDYWGQGTLVTVSS
VL: QSALTQPASVSGSPGQSITISCTGTSSDVGGYNYVSWYQQHPGKAPKLMIYEVSNRPSGVSNRFSGSKSGNTASLTISGLQAEDEAHYYCSSYTTDNAWVFGGGTQLTVLG
B2: EW01 (antibody, human IgG1, lambda, V domains shown)
VH: EVQLLESGGGLVQPGGSLRLSCAVSGFTFSDYYMSWVRQAPGKGLEWVSGIYSSSSNIYYADSVKGRFTISRDNSENTLYLQMNSLRAEDTAVYYCAKALGNQENEPTSYSNGMDVWGQGTLVTVSS
VL: QSVLTQPPSASGTPGQRVTISCSGSSSNIGNNSVYWYQQLPGTAPKLLIYSDSQRPSGVPDRFSGSKSGTSASLAISGLRSEDEADYYCGTWDYSLNGYVFGGGTKLTVLG
notes: also called anti-idiotype antibody EW01; EW01 antibody
B3: EW16 (antibody, human IgG1, lambda, V domains shown)
VH: EVQLLESGGGLVQPGGSLRLSCAASGFTFSDYYMSWVRLAPGKGLEWVSAISHSSGNTYYADSVKGRFTISRDNSKNTLYLQMNSLRAEDTAVYYCAKHLGAQSDEPDSSSNGMDVWGQGTLVTVSS
VL: B2 VL with S23T, S33D, Q54N, V59I, Y94D
B4: EW03 (antibody, human IgG1, lambda, V domains shown)
VH: EVQLLESGGGLVQPGGSLRLSCAASGFTFSDYDMSWVRQAPGKGLEWVSLISYGGSNTYYADSVKGRFTISRDNSKNTLYLQMNSLRAEDTAVYYCAKFRSEFNENEPSSYYGMDVWGQGTLVTVSS
VL: B2 VL with S33D, Y35T, Q54N, Y94S, N97S, G98A
B5: EW06 (antibody, human IgG1, lambda, V domains shown)
VH: EVQLLESGGGLVQPGGSLRLSCAASGFTFSGYDMSWVRQAPGKGLEWVSGISHGDGNIYYADSVKGRFTISRDNSKNTLYLQMNSLRAEDTAVYYCAKVGLLFVQEEPSYYNAMDVWGQGTLVTVSS
VL: B2 VL with S23T, N31S, S33N, Y35T, D52N, Q54H, E84G, Y94D
B6: EW37 (antibody, human IgG1, lambda, V domains shown)
VH: EVQLLESGGGLVQPGGSLRLSCAASGFTFSNYSMSWVRQAPGKGLEWVSSISSSGGNTYYADSVKGRFTISRDNSKNTLYLQMNSLRAEDTAVYYCARVHLYFDYWGQGTLVTVSS
VL: B2 VL with N31S, Y35N, Q54H, T91S, Y94D, N97S
B7: EW10 (antibody, human IgG1, lambda, V domains shown)
VH: EVQLLESGGGLVQPGGSLRLSCAASGFTFSGYDMSWVRQAPGKGLEWVSGISYNGGSKYYADSVKGRFTISRDNSKNTLYLQMNSLRAEDTAVYYCAKYLLPVLEEPGYSADGMDVWGQGTLVTVSS
VL: B2 VL with S23T, N31S, S33Y, Y35S, Q38R, Q54N, G90A, Y94A, N97S, G98A
B8: EW26 (antibody, human IgG1, lambda, V domains shown)
VH: EVQLLESGGGLVQPGGSLRLSCAASGFTFSNYAMSWVRQAPGKGLEWVSAIYPGGGNTYYADSVKGRFTISRDNSKNTLYLQMNSLRAEDTAVYYCAKSLSTHSVDEPSSDNAMDVWGQGTLVTVSS
VL: B2 VL with S23T, N31S, Y35S, S51D, Q54N, G90A, T91S, G98A
B9: huAbF46-H4-A1 (IgG2 Fc) (antibody, V domains shown)
VH: EVQLVESGGGLVQPGGSLRLSCAASGFTFTDYYMSWVRQAPGKGLEWLGFIRNKANGYTTEYSASVKGRFTISRDNSKNTLYLQMNSLRAEDTAVYYCARDNWFAYWGQGTLVTVSS
VL: DIQMTQSPSSLSASVGDRVTITCKSSQSLLASGNQNNYLAWYQQKPGKAPKMLIIWASTRVSGVPSRFSGSGSGTDFTLTISSLQPEDFATYYCQQSYSRPYTFGQGTKVEIKR
notes: It was biotinylated in some assays; also called anti-c-Met antibody; biotinylated anti-c-Met antibody
B10: EW09 (antibody, human IgG1, lambda, V domains shown)
VH: B6 VH with N31D, S33D, S53Y, S54G, N57S, T58I, V93M, V99D, H100A, L101A
VL: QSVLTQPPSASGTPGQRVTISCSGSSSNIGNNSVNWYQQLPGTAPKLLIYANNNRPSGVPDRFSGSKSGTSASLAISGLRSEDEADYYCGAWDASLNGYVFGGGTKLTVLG
B11: HAL 7-2 (antibody, human IgG1, lambda, V domains shown)
VH: QVQLVQSGAEVKKPGSSVKVSCKASGGTFSSYAISWVRQAPGQGLEWMGGIIPIFGTANYAQKFQGRVTITADESTSTAYMELSSLRSEDTAVYYCARDRNSYYEEPMYYFDYWGQGTLVTVSS
VL: QAGLTQPPSVSVSPGQTASITCSGDKLGDRYVFWYQQKPGQAPVLVVHDDSDRPSGIPERFSGSNSGDTATLTISRVEAGDEADYYCQVWDSVNDHPVFGGGTKLTVLG
B12: HAL 7-5 (antibody, human IgG1, lambda, V domains shown)
VH: B11 VH with S16A
VL: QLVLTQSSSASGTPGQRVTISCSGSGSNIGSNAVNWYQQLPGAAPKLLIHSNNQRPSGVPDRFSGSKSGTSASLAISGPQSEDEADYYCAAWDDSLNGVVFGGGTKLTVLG
B13: HAL 8-7 (antibody, human IgG1, kappa, V domains shown)
VH: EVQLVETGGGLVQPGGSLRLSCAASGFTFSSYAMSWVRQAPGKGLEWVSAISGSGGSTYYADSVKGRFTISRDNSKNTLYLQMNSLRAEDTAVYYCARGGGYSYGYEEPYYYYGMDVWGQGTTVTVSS
VL: AIQLTQSPLSLSVSAGEKVTMSCKSSQSLLNSGNQKNDLAWYQQKPGQRPKLLIYGASTRESGVPDRFTGSGSGTDFTLTISSVQAEDLAVYYCQNDHSYPLTFGAGTKLEIKR
B14: AbF46 (antibody, V domains shown)
VH: EVKLVESGGGLVQPGGSLRLSCATSGFTFTDYYMSWVRQPPGKALEWLGFIRNKANGYTTEYSASVKGRFTISRDNSQSILYLQMDTLRAEDSATYYCARDNWFAYWGQGTLVTVSA
VL: DILMTQSPSSLTVSAGEKVTMSCKSSQSLLASGNQNNYLAWHQQKPGRSPKMLIIWASTRVSGVPDRFIGSGSGTDFTLTINSVQAEDLAVYYCQQSYSAPLTFGAGTKLELK
notes: Mouse monoclonal antibody from a hybridoma; tested as hybridoma culture supernatant in the selection ELISA; also called mouse antibody AbF46; monoclonal antibody of hybridoma KCLRF-BP-00220
B15: EW02 (antibody, human IgG1, lambda, V domains shown)
VH: B6 VH with S33A, R87G, R98K, V99Y, L101S, Y102V
VL: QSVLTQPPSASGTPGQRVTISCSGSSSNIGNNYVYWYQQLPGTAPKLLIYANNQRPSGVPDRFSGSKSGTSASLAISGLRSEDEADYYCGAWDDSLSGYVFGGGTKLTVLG
notes: also called EW02 antibody
B16: HAL 7-7 (antibody, human IgG1, lambda, V domains shown)
VH: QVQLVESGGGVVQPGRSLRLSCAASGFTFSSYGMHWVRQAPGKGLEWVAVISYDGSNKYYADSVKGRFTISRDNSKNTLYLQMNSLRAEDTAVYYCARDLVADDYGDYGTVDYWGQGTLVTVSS
VL: QSVLTQPPSVSMAPGQTARITCGGNNIATKGVHWYQQKAGQAPVLVVYDDSGRPSGIPDRFSGSKSGNTATLTISRVEAGDEADYYCQLWDGRSDQVLFGGGTKLTVLG
B17: EW28 (antibody, human IgG1, lambda, V domains shown)
VH: EVQLLESGGGLVQTGGSLRLSCAVSGFTFSDYAMSWVRQAPGKGLEWVSAISSGDGNTYYADSVKGRFTISRDNSKNTLYLQMNSLRAEDTAVYYCARYLGTTSDEPASYSNGMDVWGQGTLVTVSS
VL: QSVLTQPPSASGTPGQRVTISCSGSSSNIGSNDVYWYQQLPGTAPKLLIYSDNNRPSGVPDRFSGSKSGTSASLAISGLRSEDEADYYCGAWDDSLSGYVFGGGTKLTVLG

The target in assay [1] is B9. Put plainly: bridging ELISA: plate coated with anti-c-Met antibody, anti-idiotype antibody, biotinylated anti-c-Met antibody as detector. Here is the method:
(§1) The antibodies prepared in Example 1 above were produced in 293 F cells (invitrogen), purified and quantified to adjust their concentration, and then used for the following tests. The quantification of the purified antibodies was performed using a Nano-drop machine, and numerals reflecting A280/A260 absorption values were used. The quantification results were confirmed again through SDA-PAGE procedures. […] After blocking, the plates were washed with a PBST (0.05% Tween20 in PBS) and then treated with the anti-idiotype antibodies prepared in example 1 at 10-fold serial dilution concentrations (10 μg/ml, 1 μg/ml, 0.1 μg/ml, and 0.01 μg/ml) starting from 10 μg/ml, respectively to react at a room temperature for one hour. After the reaction was complete, the plates were washed again with a microplate washer (Biotek ELx405, PBST).
(§2) For color development, the plates were treated with TMB (3,3,5,5-tetramethylbenzidine) which is a HRP substrate, and absorption was measured at 450 nm.
In general terms: In an ELISA, binding on a coated surface is turned into a signal by an enzyme label.

Assay [2] concerns the target B9. Put plainly: bridging ELISA: plate coated with anti-c-Met antibody 1 ug/ml; anti-idiotype antibody at 0.01 to 10 (ug/ml per paragraph 258, axis prints no unit); detection with biotinylated anti-c-Met antibody 200 ng/ml and avidin-HRP; absorbance at 450 nm. The procedure:
as §1, §2

The target of assay [3] is T1, c-Met protein (358-MT/CF, RND systems) (UniProt P08581 25-932).
T1 construct: Bought reagent, known only by its catalogue number; also called antigen c-Met protein
T1 sequence (P08581 25-932 limits assumed): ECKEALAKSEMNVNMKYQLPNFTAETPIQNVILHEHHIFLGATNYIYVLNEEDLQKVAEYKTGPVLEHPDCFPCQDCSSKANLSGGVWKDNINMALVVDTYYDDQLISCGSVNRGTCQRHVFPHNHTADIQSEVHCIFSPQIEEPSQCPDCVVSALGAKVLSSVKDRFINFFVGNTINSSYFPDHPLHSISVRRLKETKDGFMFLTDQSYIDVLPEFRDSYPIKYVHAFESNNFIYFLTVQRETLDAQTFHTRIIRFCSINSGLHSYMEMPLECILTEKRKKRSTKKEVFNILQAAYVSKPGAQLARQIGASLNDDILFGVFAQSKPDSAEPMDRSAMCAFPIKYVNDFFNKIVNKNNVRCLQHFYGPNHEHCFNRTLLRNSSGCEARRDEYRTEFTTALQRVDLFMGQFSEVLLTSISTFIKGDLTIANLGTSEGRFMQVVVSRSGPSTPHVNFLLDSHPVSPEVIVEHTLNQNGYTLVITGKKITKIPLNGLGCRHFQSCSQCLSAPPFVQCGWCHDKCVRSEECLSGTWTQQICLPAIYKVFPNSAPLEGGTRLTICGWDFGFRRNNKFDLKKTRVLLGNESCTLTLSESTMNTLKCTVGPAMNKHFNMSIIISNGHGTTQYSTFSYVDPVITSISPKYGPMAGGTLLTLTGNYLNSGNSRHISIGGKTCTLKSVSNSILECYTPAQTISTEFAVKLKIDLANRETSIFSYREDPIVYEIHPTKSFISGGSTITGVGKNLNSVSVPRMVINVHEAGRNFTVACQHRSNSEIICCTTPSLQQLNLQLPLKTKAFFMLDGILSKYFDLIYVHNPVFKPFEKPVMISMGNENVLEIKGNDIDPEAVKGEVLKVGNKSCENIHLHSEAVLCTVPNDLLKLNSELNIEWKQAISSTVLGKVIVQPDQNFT
In words: ELISA, 'Pre-existing Experiment (0.1% serum)': plate coated with c-Met protein; anti-c-Met antibody titrated 3-fold from 1 ug/ml in monkey serum diluted to 0.1%; Abs450.

The target of the assay “EW02” is B15. In words: sandwich ELISA: capture EW02 0.25 ug/ml; anti-c-Met antibody titrated 3-fold from 1 (ug/ml per paragraph 273, axis prints no unit) in 10% human serum; detector EW01-biotin 0.25 ug/ml, streptavidin-HRP; absorbance at 450 nm. The source says: Finally, the plates were washed with a washing solution (PBST (0.05% Tween20 in PBS)) to eliminate unreacted HRP and then, they were subject to color development using a TMB substrate to measure absorption at 450 nm.

The assay “EW01” has as its target B2. Put plainly: sandwich ELISA: plate coated with EW01 0.25 ug/ml; anti-c-Met antibody titrated 3-fold from 1 ug/ml in cynomolgus monkey serum (10% per paragraph 268; the sheet's title prints 0.1% serum); detector biotinylated EW01 0.25 ug/ml, streptavidin-HRP; Abs450. The procedure:
After the reaction of the detection antibody was over, the same washing procedures as above were carried out, and a HRP-streptavidin solution (BioLegend) was added thereto to react at a room temperature for one hour. After all the reactions were over, the plates were finally washed and treated with a TMB substrate for color development, and absorption was measured at 450 nm and analyzed.

In assay [4] the target is T2, human c-Met/Fc fusion protein (R&D Systems) (human, UniProt P08581 25-932).
T2 construct: Bought; also called human c-Met/Fc protein; not shown: Fc part
T2 sequence (P08581 25-932 limits assumed): as above
In words: ELISA, hybridoma culture on plates coated with human c-Met/Fc fusion protein. The procedure: The antibody that remained unbound was removed by washing.
The hybridoma cell culture obtained in Reference Example 1.1.2 was added in an amount of 50 μL to each well of the plates and incubated for 1 hour. The cells remaining unreacted were washed out with a sufficient amount of Tris-buffered saline and Tween 20 (TBST). Goat anti-mouse IgG-horseradish peroxidase (HRP) was added to the plates and incubated for 1 hour at room temperature. The plates were washed with a sufficient amount of TBST, followed by reacting the peroxidase with a substrate (OPD). Absorbance at 450 nm was measured on an ELISA reader.

Assay [5] has as its target B9. In words: SPR (Biacore).

Positions count from the first letter of the chain named.

For the molecule B1, the binding result with huAbF46-H4-A1 (IgG2 Fc) [1] is on record as “binds”.

Consider B2, for which, in the assay with huAbF46-H4-A1 (IgG2 Fc) [2], the binding result is listed as “binds”.

In the case of B3, the binding result with huAbF46-H4-A1 (IgG2 Fc) [1] is listed as “binds”.

In the case of B4, the binding result in the assay with huAbF46-H4-A1 (IgG2 Fc) [1] was “binds”.

As to B5, in the assay with huAbF46-H4-A1 (IgG2 Fc) [1], the binding result is “binds”.

Turning to B6, the binding result with huAbF46-H4-A1 (IgG2 Fc) [1] was “binds”.

As for B7, in the assay with huAbF46-H4-A1 (IgG2 Fc) [1], the binding result is recorded as “binds”.

For the molecule B8, in the assay with huAbF46-H4-A1 (IgG2 Fc) [1], the binding result is “binds”.

Consider B9, for which the concentration for a half-maximal effect (EC50 (read off the curve)) – broadly, the concentration at which the effect is half-maximal – in assay [3] is approximately 0.03 µg/mL; in the assay with EW01, approximately 0.02 µg/mL. For the same molecule, the binding result with EW02 is “binds”.

In the case of B10, the binding result in the assay with huAbF46-H4-A1 (IgG2 Fc) [1] is “binds”.

In the case of B11, the binding result with huAbF46-H4-A1 (IgG2 Fc) [1] is on record as “binds”.

Take B12: in the assay with huAbF46-H4-A1 (IgG2 Fc) [1], the binding result is recorded as “binds”.

As for B13, in the assay with huAbF46-H4-A1 (IgG2 Fc) [1], the binding result is given as “binds”.

B14: the binding result in assay [4] is given as “binds”.

Take B15: in the assay with huAbF46-H4-A1 (IgG2 Fc) [5], the affinity, expressed as Kd, was 38.4 nM; the koff (usually the first-order rate constant of dissociation) turned out to be 0.0032 s⁻¹; the kon (in general, the rate constant with which the complex forms) is 85000 M⁻¹ s⁻¹.

On to B16, for which the binding result in the assay with huAbF46-H4-A1 (IgG2 Fc) [1] is listed as “binds”.

Consider B17, for which, in the assay with huAbF46-H4-A1 (IgG2 Fc) [1], the binding result is given as “binds”.

The values above are taken from patent US20140302517A1 (SAMSUNG ELECTRONICS, published 2014).
